Experimental data from US20040235029A1.

Target: exonuclease V (ExoV) of E. coli, a component of RecBCD holoenzyme (E. coli) (UniProt P08394)
Test: cell-based or functional assay

UniProt P08394, sequence (P08394 2-1180 limits assumed, chain 1 of 3): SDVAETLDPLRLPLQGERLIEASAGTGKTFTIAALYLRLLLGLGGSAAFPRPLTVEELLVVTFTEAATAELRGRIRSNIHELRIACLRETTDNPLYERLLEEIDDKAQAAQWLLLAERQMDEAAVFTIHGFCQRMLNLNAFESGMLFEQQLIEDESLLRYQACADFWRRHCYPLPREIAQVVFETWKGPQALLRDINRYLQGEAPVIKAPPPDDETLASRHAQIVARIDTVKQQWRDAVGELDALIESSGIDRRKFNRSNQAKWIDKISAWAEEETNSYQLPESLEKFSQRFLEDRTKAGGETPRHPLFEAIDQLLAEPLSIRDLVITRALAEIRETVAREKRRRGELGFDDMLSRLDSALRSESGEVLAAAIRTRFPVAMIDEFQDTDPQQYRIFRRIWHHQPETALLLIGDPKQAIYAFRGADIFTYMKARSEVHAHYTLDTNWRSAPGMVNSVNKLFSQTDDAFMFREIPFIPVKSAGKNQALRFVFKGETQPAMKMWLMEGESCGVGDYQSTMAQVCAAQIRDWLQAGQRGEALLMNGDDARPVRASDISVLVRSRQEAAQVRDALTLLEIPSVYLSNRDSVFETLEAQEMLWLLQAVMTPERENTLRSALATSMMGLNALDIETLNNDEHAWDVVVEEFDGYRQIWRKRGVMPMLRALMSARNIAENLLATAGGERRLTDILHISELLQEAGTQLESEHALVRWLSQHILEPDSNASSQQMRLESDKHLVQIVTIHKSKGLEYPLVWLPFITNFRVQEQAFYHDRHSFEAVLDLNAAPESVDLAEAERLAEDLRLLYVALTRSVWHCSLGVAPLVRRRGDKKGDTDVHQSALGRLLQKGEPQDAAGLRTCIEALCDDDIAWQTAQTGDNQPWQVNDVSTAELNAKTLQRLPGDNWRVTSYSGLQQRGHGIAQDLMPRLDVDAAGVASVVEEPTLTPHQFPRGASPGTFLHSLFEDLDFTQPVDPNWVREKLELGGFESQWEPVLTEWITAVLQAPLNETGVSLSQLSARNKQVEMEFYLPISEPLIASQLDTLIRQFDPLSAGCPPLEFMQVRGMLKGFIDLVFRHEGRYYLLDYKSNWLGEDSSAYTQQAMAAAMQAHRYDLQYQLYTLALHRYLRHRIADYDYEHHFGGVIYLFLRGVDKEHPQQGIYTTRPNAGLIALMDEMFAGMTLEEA
UniProt P08394, sequence (P07648 whole entry, chain 2 of 3, further chain): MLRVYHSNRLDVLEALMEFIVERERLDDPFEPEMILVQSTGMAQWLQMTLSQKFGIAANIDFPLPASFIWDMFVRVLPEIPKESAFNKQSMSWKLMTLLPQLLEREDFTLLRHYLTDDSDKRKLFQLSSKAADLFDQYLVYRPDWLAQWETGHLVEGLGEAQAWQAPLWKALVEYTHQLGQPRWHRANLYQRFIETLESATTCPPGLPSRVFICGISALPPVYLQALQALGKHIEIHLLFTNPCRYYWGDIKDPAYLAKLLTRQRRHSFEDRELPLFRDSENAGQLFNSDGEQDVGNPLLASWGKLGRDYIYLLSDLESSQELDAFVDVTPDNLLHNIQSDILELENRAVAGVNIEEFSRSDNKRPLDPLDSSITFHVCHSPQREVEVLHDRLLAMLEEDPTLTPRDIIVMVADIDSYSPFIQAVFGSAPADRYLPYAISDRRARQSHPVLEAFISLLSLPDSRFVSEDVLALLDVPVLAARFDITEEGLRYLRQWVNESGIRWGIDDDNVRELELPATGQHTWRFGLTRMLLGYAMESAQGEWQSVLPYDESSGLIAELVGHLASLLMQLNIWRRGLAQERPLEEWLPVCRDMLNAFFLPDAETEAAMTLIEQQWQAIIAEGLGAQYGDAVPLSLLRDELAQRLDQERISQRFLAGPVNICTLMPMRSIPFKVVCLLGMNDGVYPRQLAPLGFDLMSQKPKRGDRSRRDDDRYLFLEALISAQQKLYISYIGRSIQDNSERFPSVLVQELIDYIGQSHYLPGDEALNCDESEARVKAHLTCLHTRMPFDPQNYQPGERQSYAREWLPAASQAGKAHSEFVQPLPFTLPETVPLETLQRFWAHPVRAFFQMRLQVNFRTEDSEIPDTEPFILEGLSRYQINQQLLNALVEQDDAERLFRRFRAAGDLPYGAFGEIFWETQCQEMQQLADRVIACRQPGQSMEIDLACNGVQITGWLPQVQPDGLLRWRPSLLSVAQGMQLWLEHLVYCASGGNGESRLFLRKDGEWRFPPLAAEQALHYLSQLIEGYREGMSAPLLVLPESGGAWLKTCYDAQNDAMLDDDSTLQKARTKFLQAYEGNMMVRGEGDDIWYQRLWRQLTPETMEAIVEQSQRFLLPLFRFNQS
UniProt P08394, sequence (P04993 whole entry, chain 3 of 3, further chain): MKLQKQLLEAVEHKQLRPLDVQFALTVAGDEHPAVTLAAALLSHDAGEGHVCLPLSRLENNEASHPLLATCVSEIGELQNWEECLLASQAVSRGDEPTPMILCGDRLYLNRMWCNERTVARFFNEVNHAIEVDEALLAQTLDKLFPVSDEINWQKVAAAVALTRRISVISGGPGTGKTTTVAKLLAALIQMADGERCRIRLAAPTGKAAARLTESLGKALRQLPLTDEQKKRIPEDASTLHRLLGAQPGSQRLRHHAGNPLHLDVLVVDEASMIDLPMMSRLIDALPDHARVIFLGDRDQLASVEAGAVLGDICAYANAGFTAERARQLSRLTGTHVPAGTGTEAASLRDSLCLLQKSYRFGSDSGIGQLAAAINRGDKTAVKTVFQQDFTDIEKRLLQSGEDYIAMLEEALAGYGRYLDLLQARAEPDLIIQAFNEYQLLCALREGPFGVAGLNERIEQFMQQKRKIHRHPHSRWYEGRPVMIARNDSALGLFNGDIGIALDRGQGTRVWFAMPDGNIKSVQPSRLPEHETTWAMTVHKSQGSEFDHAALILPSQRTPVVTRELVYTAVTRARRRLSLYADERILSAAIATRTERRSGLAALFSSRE

In the case of “GamS protein of bacteriophage lambda with C-terminal 6His tag (from UniProt P03702 41-138)”, the GFP expression from linear template in batch IVT with co-expressed GamS plasmid template (Coomassie staining of gel) is reported as > 2 fold, the GFP expression from linear template in batch IVT with crude GamS (PAGE, Coomassie), against control reaction without GamS is reported as 2 fold and the GFP protein synthesis from a linear template in batch mode IVT (Coomassie staining of gel), against control reactions lacking GamS is reported as 3 fold.
